Publication PMC12501149

Target: biotinylated RBD of TcsL (Paeniclostridium sordellii) (UniProt Q46342)
Test: SPR

Chain of biotinylated RBD of TcsL (Paeniclostridium sordellii) (Q46342 whole entry): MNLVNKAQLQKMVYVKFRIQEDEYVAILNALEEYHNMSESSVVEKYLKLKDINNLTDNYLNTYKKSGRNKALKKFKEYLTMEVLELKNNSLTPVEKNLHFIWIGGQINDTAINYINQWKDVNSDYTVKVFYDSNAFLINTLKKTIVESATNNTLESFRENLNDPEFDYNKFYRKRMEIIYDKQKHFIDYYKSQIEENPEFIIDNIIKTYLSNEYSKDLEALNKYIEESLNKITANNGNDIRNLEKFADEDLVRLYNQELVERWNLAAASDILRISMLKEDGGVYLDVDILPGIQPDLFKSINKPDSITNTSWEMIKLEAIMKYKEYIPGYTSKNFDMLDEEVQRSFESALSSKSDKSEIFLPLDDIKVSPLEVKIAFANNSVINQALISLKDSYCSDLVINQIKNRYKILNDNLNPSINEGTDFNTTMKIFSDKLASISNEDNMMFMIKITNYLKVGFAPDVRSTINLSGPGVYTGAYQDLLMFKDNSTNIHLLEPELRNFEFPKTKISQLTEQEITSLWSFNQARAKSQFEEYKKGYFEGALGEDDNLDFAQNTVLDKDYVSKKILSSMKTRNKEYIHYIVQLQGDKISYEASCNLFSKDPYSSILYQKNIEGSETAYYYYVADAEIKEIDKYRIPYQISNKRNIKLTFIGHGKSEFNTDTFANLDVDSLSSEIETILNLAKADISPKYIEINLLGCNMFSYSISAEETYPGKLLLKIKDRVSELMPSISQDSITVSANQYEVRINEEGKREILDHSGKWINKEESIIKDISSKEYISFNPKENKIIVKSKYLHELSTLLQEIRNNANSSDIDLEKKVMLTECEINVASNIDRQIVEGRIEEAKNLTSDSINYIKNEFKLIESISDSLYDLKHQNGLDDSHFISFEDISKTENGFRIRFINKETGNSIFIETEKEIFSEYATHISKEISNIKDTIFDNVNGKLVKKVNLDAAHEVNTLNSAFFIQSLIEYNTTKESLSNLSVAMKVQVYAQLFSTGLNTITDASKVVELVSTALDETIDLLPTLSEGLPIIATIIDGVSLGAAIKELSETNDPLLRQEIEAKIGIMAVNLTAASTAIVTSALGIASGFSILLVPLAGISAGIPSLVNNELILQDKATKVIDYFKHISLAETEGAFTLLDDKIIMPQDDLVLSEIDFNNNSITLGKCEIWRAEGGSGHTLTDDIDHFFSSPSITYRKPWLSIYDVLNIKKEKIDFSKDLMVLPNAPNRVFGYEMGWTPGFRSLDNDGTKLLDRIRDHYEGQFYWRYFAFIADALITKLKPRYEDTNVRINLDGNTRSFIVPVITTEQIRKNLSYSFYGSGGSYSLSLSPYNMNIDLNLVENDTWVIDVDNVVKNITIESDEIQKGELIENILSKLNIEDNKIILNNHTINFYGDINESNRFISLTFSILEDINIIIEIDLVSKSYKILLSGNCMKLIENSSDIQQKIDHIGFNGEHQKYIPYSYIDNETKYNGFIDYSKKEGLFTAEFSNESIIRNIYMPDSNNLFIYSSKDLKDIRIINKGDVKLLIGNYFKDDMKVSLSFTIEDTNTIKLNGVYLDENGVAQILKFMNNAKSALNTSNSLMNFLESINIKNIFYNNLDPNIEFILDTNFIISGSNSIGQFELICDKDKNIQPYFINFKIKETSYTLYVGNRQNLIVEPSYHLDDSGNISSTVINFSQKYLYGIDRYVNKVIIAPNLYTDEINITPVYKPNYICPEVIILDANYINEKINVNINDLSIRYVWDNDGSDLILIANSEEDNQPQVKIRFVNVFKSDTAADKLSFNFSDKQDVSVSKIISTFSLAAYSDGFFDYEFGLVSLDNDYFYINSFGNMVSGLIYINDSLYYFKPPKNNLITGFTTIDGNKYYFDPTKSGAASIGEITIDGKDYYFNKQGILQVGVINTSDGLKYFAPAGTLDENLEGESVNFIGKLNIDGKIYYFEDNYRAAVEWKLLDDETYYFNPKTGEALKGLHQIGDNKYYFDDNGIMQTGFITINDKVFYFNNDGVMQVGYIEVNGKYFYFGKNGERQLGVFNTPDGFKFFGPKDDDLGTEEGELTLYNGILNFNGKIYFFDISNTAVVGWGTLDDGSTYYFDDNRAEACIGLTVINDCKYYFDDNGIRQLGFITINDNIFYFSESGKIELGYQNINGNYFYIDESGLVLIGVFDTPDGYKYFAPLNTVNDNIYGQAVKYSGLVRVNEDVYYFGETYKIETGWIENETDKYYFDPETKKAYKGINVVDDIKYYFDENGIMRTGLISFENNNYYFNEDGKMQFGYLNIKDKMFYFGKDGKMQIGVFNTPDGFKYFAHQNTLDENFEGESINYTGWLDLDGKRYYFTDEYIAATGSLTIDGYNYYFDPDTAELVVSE

Kd: 0.0183 nM
koff: 0.000125 s⁻¹
kon: 6.86e+06 M⁻¹ s⁻¹
B1: B10 (designed binder)
chain: NEEIIKEIKQLLKEGKKASEIIELLKKNGYEEIAKDAELAALKSKDMRKAAAETAIKKLE
